Molecular target: 破伤风类毒素 (tetanus toxoid) (破伤风杆菌 (Clostridium tetani), UniProt P04958 2-1315)
Sequence (P04958 2-457 limits assumed, chain 1 of 2): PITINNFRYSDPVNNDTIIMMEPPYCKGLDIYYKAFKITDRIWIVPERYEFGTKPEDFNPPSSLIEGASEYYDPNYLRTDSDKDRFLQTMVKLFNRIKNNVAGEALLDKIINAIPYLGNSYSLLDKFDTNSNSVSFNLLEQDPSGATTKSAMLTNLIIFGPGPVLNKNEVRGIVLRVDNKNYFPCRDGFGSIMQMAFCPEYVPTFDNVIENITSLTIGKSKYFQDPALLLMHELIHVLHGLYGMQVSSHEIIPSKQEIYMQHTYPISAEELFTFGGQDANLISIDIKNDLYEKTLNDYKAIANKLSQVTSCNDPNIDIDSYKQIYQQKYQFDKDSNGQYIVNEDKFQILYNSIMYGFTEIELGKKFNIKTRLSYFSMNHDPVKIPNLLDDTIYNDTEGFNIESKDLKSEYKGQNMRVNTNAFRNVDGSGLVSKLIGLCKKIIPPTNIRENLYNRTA
Sequence (P04958 458-1315 limits assumed, chain 2 of 2): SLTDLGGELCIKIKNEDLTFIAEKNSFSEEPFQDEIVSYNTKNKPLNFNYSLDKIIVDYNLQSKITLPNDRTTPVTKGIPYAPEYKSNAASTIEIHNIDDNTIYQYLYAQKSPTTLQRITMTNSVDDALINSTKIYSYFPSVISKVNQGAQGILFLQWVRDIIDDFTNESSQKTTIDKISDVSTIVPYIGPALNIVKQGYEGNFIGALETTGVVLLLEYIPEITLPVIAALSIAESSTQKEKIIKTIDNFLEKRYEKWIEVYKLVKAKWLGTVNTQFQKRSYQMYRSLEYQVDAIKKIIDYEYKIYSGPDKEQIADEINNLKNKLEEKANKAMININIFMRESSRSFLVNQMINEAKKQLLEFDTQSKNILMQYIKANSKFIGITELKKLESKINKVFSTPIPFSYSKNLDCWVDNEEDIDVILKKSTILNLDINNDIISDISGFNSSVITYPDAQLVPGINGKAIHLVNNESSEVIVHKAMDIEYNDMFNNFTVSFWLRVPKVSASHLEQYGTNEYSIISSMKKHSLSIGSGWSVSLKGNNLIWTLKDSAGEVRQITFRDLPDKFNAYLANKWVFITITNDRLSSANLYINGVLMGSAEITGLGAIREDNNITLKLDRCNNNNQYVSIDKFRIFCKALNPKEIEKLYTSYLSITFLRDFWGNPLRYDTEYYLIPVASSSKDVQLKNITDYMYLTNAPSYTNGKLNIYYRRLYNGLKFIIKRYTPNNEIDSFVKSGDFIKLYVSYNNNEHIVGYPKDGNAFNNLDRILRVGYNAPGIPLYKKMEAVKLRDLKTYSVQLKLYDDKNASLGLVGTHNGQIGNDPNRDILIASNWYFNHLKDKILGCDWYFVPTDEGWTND

B1: TRN0010抗体 (全人源抗破伤风毒素中和抗体) (antibody, V domains shown)
VH: QVQLQESGPGLVKPSETLSLRCTVSGGSISSYYWSWFRQPPGKGLEWIGYVHYSGSTNYNPSLKSRFTLSVDTSKSQFSLRLRSVTAADTAIYYCARDKYQTDVSDIWGQGTVVTVSS
VL: DIQMTQSPGTLSLSPGERATLSCRASQSITSSFLAWYQQKPGQAPRLLIYGASSRATGIPDRFSGSGSGTDFILTISRLEPEDFAVYYCQQYDTSRTFGQGTTVEIK
- Kd: 3.68 nM
- koff: 0.000153 s⁻¹
- kon: 41500 M⁻¹ s⁻¹

From patent CN108314731A (ZHUHAI TAINUO MAIBO BIOTECHNOLOGY CO LTD; GUANGZHOU …, dated 2018)
